assay: yeast display, Sf9 membrane polyspecificity reagent, FACS + sequencing; frameworks hold sequencing errors
Outline: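 A nanobody's polyreactivity label depends on the gate it was sorted from. Yeast display cells were stained with 10% biotinylated, detergent-solubilized Sf9 membrane reagent for 1 hour at 4 °C, enriched on streptavidin microbeads and sorted by FACS. The low and high (top ~1%) gates were set on anti-HA fluorescence for expression and streptavidin fluorescence for reagent binding.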

Row | Sequence | polyreactivity (PSR sort gate)
1 | QVQLEESGGGLVQAGGSLRVSCAPSGRTFGWYTMGWYRQAPGKERELVAVISSTGGRTYYADSVKGRFTISRDNAKNTVYLQMNSLKPEDTAVYYCAAEYVSAKWESGYWGQGTQVTVSS | low polyreactivity
2 | QVQLVESGGGLLQAGGSLRKSCAASGFTFDENSMGGYRQAPAINYSGASTYYAVSVKGRFTISRDNAKNTVYLQMNSLKPEDTAVYYCAAEVVAQMIYWGQGTQVTVSS | low polyreactivity
3 | QDQLVESWGGLVQAVGSLRLSCAASGSTFEDYGMGWNRQAPGKERQFVAAIRYSGSSKYADSVKGRFTISRDNAKNTVFLLMKSLIPEDTAVYYCAKYGVRVGFGYSSEYFGQGTQVTVSS | low polyreactivity
4 | QVQLVESGVGLVQAGGSLRLSCAASGSTFPKNVMGWYRQAPGKERELVAAINYSGTSTYYADSVKGRFTISRDNAKNTVYLQMNSLKPEDTAVYYCAARFPLVRYNYWGQGTQVTVSS | high polyreactivity
5 | QVQLVESGGGLVQAGGSLRLSCAASGNTFQYYAMGWYRQAPGKEREFVAAISRRGGSTYYADSVKGRFTISRDNAKNTVYLQMNSLKPEDTAVYYCNKVIVLSQSSYSFHYAYDYWGQGTQVTVSS | high polyreactivity
6 | QVQREESGGGLVQAGGSLRLSCAASGFTFRYYAMGRYRQAPGKERELVAAITWSGGSTYYADSVKGRFTISRDNAKNTVYLQLNSLKPEDTAVYYCNVEAVAWWPEEDYWGQGTQVTVSS | high polyreactivity
7 | QVQLVESVGGLVQAGGSLRLSCASSGITFWYYAMGWYRQAPGKERELVAAISYSGDSTYYADSVKGRFTISRDNAKNTVYLQMNSLKPEDTAVYYCAARTRAGAWTSKYHDYWGQGTQGTVSS | high polyreactivity
8 | QVQLVETGGGLVQAGGSLRLSCAASGRTFSRNAMGWYRQAPGKERELVAAISQRGVSTYYADSVKGRFTISRDNAKNTVYLQMNSLKPEDTAVYYCNTRGTYRYDYWGQGTQVTVSS | low polyreactivity
9 | QVQLVESGGGLVQAGGSLRLSCAASGRTFARYAMGWYRQAPGKERELVARISSGGSTYYADSVKGRFTISRDNAKNTVYLQMNSLKPEDTAVYYCAASGWRYRYDYWGQGTQVTVSS | high polyreactivity
10 | QVQLVESGGGLVQAGGSLRLSCAASGSTFYPYDMGLYRQAPGKERELVATITSTGGSTNYADSVKGRFTISRDNAQNTVYLQMNSLKPEDTAVYYCAKDWNDDQHSWDTPFDYWGQGTHVTVSS | low polyreactivity
11 | QVQLVESGGGLVQAGGSLRLSCAASGGSFIANAMGRYRQAPGTEREVVAAITSGGSTNYADSVKGRFTISRDNAKNTVYLQMNSLKPDDTAVYYCNAEQNPSGLYDYRGVEGEMGYWGQGTQVTVSS | low polyreactivity
12 | QVQLVESGGGLVQAGGSLRLSCAASGFTFKFNAMGWYRQAPGKEREFVAAISYSGGSTYYADSVKGRFTISRDNAKNTVYLQMNSVKPEDTAVYYCAARAYWYGASYYYWGQGTQVTVSS | high polyreactivity
13 | QVQLVESGGGLVQAGGSLRLSCAASGGIFGVYAMVWYRQAPGKERELVAAISQSDTSTYYADSVKGRFTISRDNAKNTVYLQMNSLKPEDTAVYYCADEYYLDYYTWFDYWGQGTQVTVSS | high polyreactivity
14 | QVQLVESGGGLVQAGGSLRLSCAASGSTIYYAMGWYRQAPGKERELVAAISYSGGSTRYADSVKGRFTISRDNAKNTVYLEMNFLKPEDTSVYYCAAPRKYYYGESPLDYWGQGTQVTVSS | high polyreactivity
15 | QVQLVESGGGLVQAGGSLRLSCAASGSIFSTYTMGWYRQAPGKERELVAGISKSGGSTYYADSVKGRFTISRDNAKNTVYLQMNSLKPEDTAVYYCAAPVPKTDKLLRMYYWGQGTQVTVSS | high polyreactivity
16 | QVQLVESGGGLVQAGGSLRLSCAASGSTFYIYGMGWYRQAPGKERELVAAISQRDGSTYYADSEKGRFTSSRDNAKNTVYLQMNSLKPEDTAVYYCNAGLWYSSYDSDYWGQGTQVTVSS | low polyreactivity
17 | QVQLVESGGGLVQAGGSLRLSCAASGGTFYYNAMGWYRQAPGKERELVAGITQSGGNTYYADSVKGRFTISRDNAKNTDYLQMNSLKPEDTAVYYCAARIRGTWKYGYWGQGTQVTVSS | low polyreactivity
18 | QVQLVESGGGLVQAGGSLRLSCAASGFTFRYYAMGWYRQAPGKERELVAGISWRGGSTNYADSVKGRFTISRDNAKNTVYLQMNSLKPEDTAVYYCNAVSYSFPIHRVRPTWYDYWGQGTQVTVSS | high polyreactivity
19 | QVQLVESGGGLVQAGGSLRLSCAASGSTLGRYTMGWSRQAPGKERELVAAIRASGTSTYYADSVKGRFTISRDNAKNTVYLQMNSLKPEDTAVYYCNALQFGTVRLDSWGLGTQVTVSS | low polyreactivity
20 | QVQLVESGGGLVQAGGSLRLSFAASGYTFSPYAMGWYRQAPGKERELVAVISSSASTYYADSVKGRFTISRDNAKITVYLQMNSLKPEDTAVYYCAAQPAHPRRYDYWGQGTQVTVSS | high polyreactivity
21 | QVQLVESGGGLDQAGGSLRLSCAASGLIFSQYTMGWYRQAPGKERELVASITWRGGSTYADSVKGRFTISRDNAKNTVYLQMNSLKPEDTAVYYCAADYKPSYYLRQSYGYWGQGTQVTVSS | low polyreactivity

Row | Sequence | polyreactivity (PSR sort gate)
22 | KVQLVESGGGLVQAGGSLRLSCAASGSIFPSYVMGWYRQAPGKERELVAAITKSTGTTYYADSVKGRFTISRDNAKNTVYLQMNSLKPEDTAVYYCNAPYWFSPGYGGFEFGYDYWGQGTQVTVSS | low polyreactivity
23 | QVQRVESGGGLVQAGGSLRLSCAASGSIIAGYPMGWSRQAPGKERELVAGIRRGGSTNYADSVKGRFTISRDNAKKTVYLQMNSLKPEDTAVYYCNAQRTRSYVLRTFDYWGQGTQVTVSS | high polyreactivity
24 | QVQLVESGGGLVQAGGSLRLSCAASGRTFYPYAMGWYRQAPGKERELVAAITQSGGSTYYADSVKGRFTISRDNAKNTVFLEMNSLKPEDTAVYYCAKRGYDNYPFYYWGQGTQVTVSS | high polyreactivity
25 | QVQLVESGGGLVQAGGSLRLSCAASGSTFVYNAMGWYRQAPGKERELVASITRSGSSTYYADSVKGRFTISRDNAKNTVYLQMNSLKPEDTAVYYCAVRYSVLSNYRYYYWGQGTQVTVSS | low polyreactivity
26 | QVQLVESGGGIVQAGGSLRLSCAASGRIFLRNAMGWYRQAPGYEREFVAAMRYSGGRTYYADSVKGRFTISRDNAKNTVYLQMISLNPEDTAVYYCAAEGSSRSSYRKYDYWGQGSQVTVSS | high polyreactivity
27 | QVQLVESGGGLVQAGGSLSLSCAAYGRTFYRNAMGWYRQAPGKERELVAAISYSGGSTYYADSVKGRFTISRDNAKNTVYLQMNILKPEDTAVYYCNVLYRVDYYRRVDYWGQGTQVSVSS | high polyreactivity
28 | QVQLVESGGGLVQAGGSLRLSCAASGFTFKYYAMGWYRQAPGKERELVAAIRRSAGSTNYADSVKGRFTISRDNAKNTVYLQMNSLKPEDTAVYYCNTVGTRQPMDYWGQGTQVTVSS | high polyreactivity
29 | QVQLVESGGGLVQAGGSLRLSCAASGFIFYLYTMGWYRQAPGKERELVAAIDYSGASTNYADSVKGRFTISRDNAKNTVYVQRNSQKPEDTAVYYCAVNPEVLYHSWTLDYWGQGTQVTVSS | low polyreactivity
30 | QVQLVESGGGLVQAGGSLRLSCAASGRIFEHNAMGWYRQAPGKEREFVAAISSSGGSTYYADSVKGRITISRDNAKNTVYLQMNSLKPVDTAVYYCNAGSTYYERNYWGQGTQVTVSS | low polyreactivity
31 | QVQLVESGGGLVQAGGSLRVSCAASGRTFYFNAMGWYRQAPGKERELVAVISWSGGRTYYADSVKGRFTISRDNAKNTVYLLMNSLKPEDTAVYYCAADYQSGGSRYDYWGQGTQVTVSS | high polyreactivity
32 | QVQLVESGGGLVQAGGILRLSCAASGSTLTSNDMGWYRQAPGKERELFADITWSGGDTYYADSVKGRFTISRDNAKYTVYLQMNSLKPEDTAVYYCAAEDPNYRPFAYGIEYDYWGQGTQVTVSS | low polyreactivity
33 | QVQHVESGGGLVQAGGNLRLSCPASGRTIYSYTMGWYRQTPGKERELVAAINRSGGRTYYADSVKGRFTISRDNAKNTVYLQMNSLKQEDTAVYYGNALEYYRYDYWGQGTQVTVSS | high polyreactivity
34 | QVQLVESGGGLVQAGGSLLLSCAASGITSYYYAMGGYRQAPGKERELVAAITRGGRTKYADSVKGRFTISRDNAKNTVYLQMNSLKPEDTAVYYCAADVWGQGTQVTVSS | high polyreactivity
35 | QVQLVESGGGLVQAGGSLRLSCAASGFIFYYYAMGWYRQAPGKERELVAAINRRGGSTYYADSVKGRFTISRDNAKNTVYLQMNSLKPEDTAVYYCAATYDGTFDYWGQGTQVTVSS | high polyreactivity
36 | QVQLVESGGGLVQAGGSLRLTCAASGSIFRYYAMGWYRQAPGKERELVATISSGGRTYYADSVKGRFTISRDNAKNTVYLQMNSLKPEDTAVYYCAAVRLTWTAKYNYWGQGTQVTVSS | high polyreactivity
37 | QVQLVESGGGLVQAGGSLRLSCAASGSIFNQYAMGWHRQAPGKERELVAAISSDGGRTYYADSVKGRFTISRDNAKNTVYLQMNSLNPEDTAVYYCNKDVRPAYRWYDYWGQDTQVTVSS | low polyreactivity
38 | QVQLVESGGGLVQAGGSLRLSCAASGGTFGYYAMGWYRQAPGKERELVAAINRSDGGTYYADSVKGRFTISRDNAKNTVYLQMNSLKPEDTAVYYCNADDFYYDEPYDYWGQGTQVTVSS | low polyreactivity
39 | QVQLVESGGGLVQAGGSLRLSCAASGSIFSPYTMGWYRQAPGKEREFVAAIRWTTGSTYYADSVKGRFTISRDNAKNTVYLQMNSLKPEDTAVYYCAADPSYRSRLFRSYEYDYWGQGTQVTVSS | high polyreactivity
40 | QVQLVESGGGLVQAAGSLRLSCAASGSIFRPYAMGWYRQAPGKERELVATITSRGGSTYYADSVKGRFTISRDNAKNTVYLQMNSMKPEDTAVYYCAARYISSYGRTQDYSRYDYWGQGTQVNVSS | high polyreactivity
41 | QVQLVESGGGLVQAGGSLRLSCAASGRTINRYAMGWYRQAPGKERELVAAISTSGGTTYYADSVKGRFTISRDNAKNTVYLQMNSLKPEDTAVYYCNARALAYWGQGTQVTVSS | high polyreactivity

From the nanobody polyreactivity screen of Harvey et al. (2022)
